Legend:
[1] = target: T1, human β-catenin (armadillo repeat 3 up to the C-terminal end, Leu218-Leu781) fused to the activation domain … (human, UniProt P04386 768-881; P35222 218-781); test: yeast 2-hybrid; wild type is the 100% reference of Table 2
T1 construct: Order of the fusion follows the vector; also called wild type β-catenin
T1 sequence (looked up): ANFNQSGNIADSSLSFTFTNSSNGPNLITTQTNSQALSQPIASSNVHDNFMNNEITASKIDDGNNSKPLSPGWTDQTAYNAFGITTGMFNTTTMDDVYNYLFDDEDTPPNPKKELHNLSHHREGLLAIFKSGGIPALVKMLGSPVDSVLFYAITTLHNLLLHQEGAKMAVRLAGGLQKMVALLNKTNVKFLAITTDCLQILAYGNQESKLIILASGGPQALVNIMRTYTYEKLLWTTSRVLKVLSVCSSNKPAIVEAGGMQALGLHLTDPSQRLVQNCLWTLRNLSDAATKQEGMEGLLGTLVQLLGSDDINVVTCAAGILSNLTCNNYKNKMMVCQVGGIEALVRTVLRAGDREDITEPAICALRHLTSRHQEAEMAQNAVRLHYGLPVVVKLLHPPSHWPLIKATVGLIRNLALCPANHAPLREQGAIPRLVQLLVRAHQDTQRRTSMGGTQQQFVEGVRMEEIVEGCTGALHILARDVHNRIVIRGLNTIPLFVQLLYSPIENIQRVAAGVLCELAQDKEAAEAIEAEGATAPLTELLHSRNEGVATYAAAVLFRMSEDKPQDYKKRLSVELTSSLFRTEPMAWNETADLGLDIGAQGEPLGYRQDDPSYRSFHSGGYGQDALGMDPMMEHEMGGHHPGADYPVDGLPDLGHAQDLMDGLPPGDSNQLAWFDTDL
Method: (§1) 4. Preparation and testing of mutants of β-catenin modulating the interaction with LEF-1, APC, conductin or E-cadherin The mutagenesis of β-catenin in the armadillo repeats 3–8 was carried out by means of the "mutagenesis kit" of the company Clontech according to the producer's record and the mutants were checked by sequencing (FIG. 5). In all mutants the original amino acid was substituted by alanine. For analyzing the interactions the cDNA of human β-catenin (armadillo repeat 3 up to the C-terminal end of the protein) coding for the amino acids Leu218–Leu7 µl or its mutants was cloned into the fusion vector for the activation domain of Gal-4 (pGAD424, Clontech). The cDNA for the binding domains of the interaction partners was cloned into the Lex-A fusion vector BTM 116. To this end, the cDNA of LEF-1 for the amino acids 1–99, conductin for the amino acids Ala342–ARG465; of human APC for the amino acids His1012–Glu1215 (APC 15 amino acid repeats) and for the amino acids Ser1259Asp 1400 (APC 20 amino acid repeats) and E-cadherin for the amino acids Gin773–Asp884 (cytoplasmatic domain) were amplified with the respective primers PCR. The interaction of the Lex-A hybrids with β-catenin and its mutants was quantified by means of the β-galactosidase reporter activity in the yeast 2-hybrid system (report: "Matchmaker". Clontech) (Tab. 2 and FIG. 6).

[2] = target: T2, human β-catenin (Leu218-Leu781) mutant Phe 253 to alanine, Gal-4 activation domain fusion (human, UniProt P35222 218-781); test: yeast 2-hybrid; - means 60-100% of the wild type interaction
T2 sequence: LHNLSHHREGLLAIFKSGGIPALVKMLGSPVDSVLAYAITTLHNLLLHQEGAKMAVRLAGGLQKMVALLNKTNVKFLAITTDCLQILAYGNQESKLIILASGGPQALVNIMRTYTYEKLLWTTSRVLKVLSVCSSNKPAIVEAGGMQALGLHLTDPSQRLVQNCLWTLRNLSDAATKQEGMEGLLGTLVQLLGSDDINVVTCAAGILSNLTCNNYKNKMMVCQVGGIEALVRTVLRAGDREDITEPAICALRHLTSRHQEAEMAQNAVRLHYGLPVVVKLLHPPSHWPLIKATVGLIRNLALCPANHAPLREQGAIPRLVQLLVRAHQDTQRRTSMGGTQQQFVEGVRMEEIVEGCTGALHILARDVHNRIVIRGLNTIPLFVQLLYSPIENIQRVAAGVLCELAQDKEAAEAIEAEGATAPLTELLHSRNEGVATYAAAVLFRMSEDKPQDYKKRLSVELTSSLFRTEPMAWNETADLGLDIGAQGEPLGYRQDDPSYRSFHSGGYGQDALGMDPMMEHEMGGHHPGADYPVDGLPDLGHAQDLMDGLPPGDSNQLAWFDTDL
Method: as §1

[3] = target: T3, human β-catenin (Leu218-Leu781) mutant Arg 342 to alanine, Gal-4 activation domain fusion (human, UniProt P35222 218-781); test: as above
T3 sequence: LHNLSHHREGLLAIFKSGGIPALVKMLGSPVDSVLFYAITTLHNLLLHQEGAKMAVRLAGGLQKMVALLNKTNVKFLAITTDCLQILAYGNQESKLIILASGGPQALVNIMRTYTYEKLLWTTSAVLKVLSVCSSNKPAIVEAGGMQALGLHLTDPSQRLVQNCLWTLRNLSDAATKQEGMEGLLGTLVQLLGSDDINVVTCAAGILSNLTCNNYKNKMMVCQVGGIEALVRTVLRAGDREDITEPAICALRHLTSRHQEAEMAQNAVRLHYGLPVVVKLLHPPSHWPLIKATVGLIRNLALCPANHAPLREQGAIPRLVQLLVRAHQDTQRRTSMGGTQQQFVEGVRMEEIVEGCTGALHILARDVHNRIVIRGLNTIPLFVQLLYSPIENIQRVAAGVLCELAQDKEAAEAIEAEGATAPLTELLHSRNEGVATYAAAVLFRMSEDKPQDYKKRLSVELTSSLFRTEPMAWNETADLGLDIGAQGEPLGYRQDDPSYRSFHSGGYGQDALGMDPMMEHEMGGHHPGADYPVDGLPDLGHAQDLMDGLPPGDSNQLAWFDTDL
Method: as §1

Measured: binding result

B1: LEF-1 amino acids 1-99 fused to Lex-A (vector BTM 116) (other, UniProt P0A7C2 1-202, looked up)
chain: MKALTARQQEVFDLIRDHISQTGMPPTRAEIAQRLGFRSPNAAEEHLKALARKGVIEIVSGASRGIRLLQEEEEGLPLVGRVAAGEPLLAQQHIEGHYQVDPSLFKPNADFLLRVSGMSMKDIGIMDGDLLAVHKTQDVRNGQVVVARIDDEVTVKRLKKQGNKVELLPENSEFKPIVVDLRQQSFTIEGLAVGVIRNGDWLMPQLSGGGGGGDPELCATDEMIPFKDEGDPQKEKIFAEISHPEEEGDLADIKSSLVNESEIIPASNGHEVVRQAPSSQEPYHDKAREHPDEGKHPDGGL
notes: Order of the fusion follows the vector; also called LEF-1/TCF-4
binds: [1] | [2] | [3]
